The values below come from patent US20180072815A1.

This experiment addresses commercially available anti-Stat3 antibody (Abcam). Briefly: ELISA, antibody coated directly at 1 µg/mL.

The substance his-probe (H-3) biotin labeled antibody had an OD450 Values of 0.018 OD450.
